Experimental data reported in the supplement of paper PMC10567573.

B1: ZNF263 (parent)
chain: EKPYKCPECGEIFAHSSNLLRHQR

Variants of: B1
Assay: protein stability index of a GFP-peptide fusion (GPS, HEK-293T) (PSI 1-6); higher = more stable
Conditions: c terminus: a fixed tail appended
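Also: lentivirally expressed fusions sorted by FACS into six bins by GFP to DsRed ratio, PSI derived from sequencing read proportions per bin multiplied by bin number.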

With EKPYKCPECMEIFAHSSNLLRHQR as the variant, how does the protein stability index read?
Its protein stability index is 1.91.

With EKPYKCPECNEIFAHSSNLLRHQR as the variant, how does the protein stability index read?
The protein stability index was 1.58.

Which protein stability index does the source give for EKPYKCPECFEIFAHSSNLLRHQR here?
Its protein stability index is 2.03.

Which protein stability index does the source give for EKPYKCPECIEIFAHSSNLLRHQR here?
The protein stability index was 1.79.

With EKPYKCPECLEIFAHSSNLLRHQR as the variant, how does the protein stability index read?
The protein stability index was 1.74.

For EKPYKCPECPEIFAHSSNLLRHQR, which protein stability index is on record?
The protein stability index was 2.82.

For EKPYKCPECREIFAHSSNLLRHQR, which protein stability index is on record?
Its protein stability index is 2.37.

For EKPYKCPECKEIFAHSSNLLRHQR, which protein stability index is on record?
The protein stability index was 2.31.

With EKPYKCPECGECFAHSSNLLRHQR as the variant, how does the protein stability index read?
Its protein stability index is 1.26.

With EKPYKCPECGEWFAHSSNLLRHQR as the variant, how does the protein stability index read?
The protein stability index was 2.23.

For EKPYKCPECGEQFAHSSNLLRHQR, which protein stability index is on record?
The protein stability index was 3.23.

Which protein stability index does the source give for EKPYKCPECGESFAHSSNLLRHQR here?
The protein stability index was 2.98.

With EKPYKCPECGEEFAHSSNLLRHQR as the variant, how does the protein stability index read?
Its protein stability index is 2.94.

For EKPYKCPECGEIFHHSSNLLRHQR, which protein stability index is on record?
The protein stability index was 3.17.

Which protein stability index does the source give for EKPYKCPECGEIFSHSSNLLRHQR here?
The protein stability index was 2.38.

For EKPYKCPECGEIFNHSSNLLRHQR, which protein stability index is on record?
The protein stability index was 2.7.

With EKPYKCPECGEIFTHSSNLLRHQR as the variant, how does the protein stability index read?
Its protein stability index is 2.58.

Which protein stability index does the source give for EKPYKCPECGEIFEHSSNLLRHQR here?
Its protein stability index is 4.13.

Which protein stability index does the source give for EKPYKCPECGEIFMHSSNLLRHQR here?
Its protein stability index is 2.29.

Which protein stability index does the source give for EKPYKCPECGEIFCHSSNLLRHQR here?
Its protein stability index is 2.37.

For EKPYKCPECGEIFWHSSNLLRHQR, which protein stability index is on record?
The protein stability index was 2.69.

With EKPYKCPECGEIFAHSSNLLRHCR as the variant, how does the protein stability index read?
The protein stability index was 2.41.

With EKPYKCPECGEIFAHSSNLLRHGR as the variant, how does the protein stability index read?
Its protein stability index is 1.82.

Which protein stability index does the source give for EKPYKCPECGEIFAHSSNLLRHKR here?
Its protein stability index is 2.9.

With EKPYKCPECGEIFAHSSNLLRHWR as the variant, how does the protein stability index read?
The protein stability index was 2.42.

For EKPYKCPECGEIFAHSSNLLRHYR, which protein stability index is on record?
The protein stability index was 2.07.

With EKPYKCPECGEIFAHSSNLLRHER as the variant, how does the protein stability index read?
Its protein stability index is 2.48.

With EKPYKCPECGEIFAHSSNLLRHHR as the variant, how does the protein stability index read?
Its protein stability index is 2.34.

With EKPYKCPECGEIFAHSSNLLRHVR as the variant, how does the protein stability index read?
The protein stability index was 1.82.

With EKPYKCPECGEIFAHSSNLLRHMR as the variant, how does the protein stability index read?
The protein stability index was 3.02.

For EKPYKCKECGEIFAHSSNLLRHQR, which protein stability index is on record?
The protein stability index was 1.49.

With EKPYKCFECGEIFAHSSNLLRHQR as the variant, how does the protein stability index read?
The protein stability index was 2.37.

For EKPYKCAECGEIFAHSSNLLRHQR, which protein stability index is on record?
Its protein stability index is 2.24.

For EKPYKCQECGEIFAHSSNLLRHQR, which protein stability index is on record?
The protein stability index was 2.46.

With EKPYKCLECGEIFAHSSNLLRHQR as the variant, how does the protein stability index read?
Its protein stability index is 2.33.

For EKPYKCNECGEIFAHSSNLLRHQR, which protein stability index is on record?
Its protein stability index is 2.21.

For EKPYKCWECGEIFAHSSNLLRHQR, which protein stability index is on record?
Its protein stability index is 2.29.

With EKPYKCDECGEIFAHSSNLLRHQR as the variant, how does the protein stability index read?
The protein stability index was 3.71.

Which protein stability index does the source give for EKPYKCRECGEIFAHSSNLLRHQR here?
The protein stability index was 1.62.

Which protein stability index does the source give for EKPYKCHECGEIFAHSSNLLRHQR here?
Its protein stability index is 2.25.

With EKPYKCIECGEIFAHSSNLLRHQR as the variant, how does the protein stability index read?
The protein stability index was 2.28.

For EKPYKCTECGEIFAHSSNLLRHQR, which protein stability index is on record?
Its protein stability index is 1.82.

Which protein stability index does the source give for EKPYKCPECGEISAHSSNLLRHQR here?
Its protein stability index is 2.75.

Which protein stability index does the source give for EKPYKCPECGEILAHSSNLLRHQR here?
Its protein stability index is 2.54.

Which protein stability index does the source give for EKPYKCPECGEIVAHSSNLLRHQR here?
The protein stability index was 2.12.

Which protein stability index does the source give for EKPYKCPECGEIQAHSSNLLRHQR here?
Its protein stability index is 2.33.

Which protein stability index does the source give for EKPYKCPECGEIMAHSSNLLRHQR here?
The protein stability index was 2.1.

For EKPYKCPECGEIPAHSSNLLRHQR, which protein stability index is on record?
Its protein stability index is 2.62.

Which protein stability index does the source give for EKPYKCPECGEIIAHSSNLLRHQR here?
The protein stability index was 2.8.

Which protein stability index does the source give for EKPYVCPECGEIFAHSSNLLRHQR here?
The protein stability index was 2.62.

For EKPYLCPECGEIFAHSSNLLRHQR, which protein stability index is on record?
The protein stability index was 2.39.

With EKPYCCPECGEIFAHSSNLLRHQR as the variant, how does the protein stability index read?
Its protein stability index is 1.52.

Which protein stability index does the source give for EKPYDCPECGEIFAHSSNLLRHQR here?
Its protein stability index is 2.24.

With EKPYACPECGEIFAHSSNLLRHQR as the variant, how does the protein stability index read?
The protein stability index was 2.91.

Which protein stability index does the source give for EKPYRCPECGEIFAHSSNLLRHQR here?
The protein stability index was 2.61.

Which protein stability index does the source give for EKPYQCPECGEIFAHSSNLLRHQR here?
The protein stability index was 3.12.

Which protein stability index does the source give for EKPYICPECGEIFAHSSNLLRHQR here?
The protein stability index was 3.39.

Which protein stability index does the source give for EKPYKCPEWGEIFAHSSNLLRHQR here?
The protein stability index was 2.34.

With EKPYKCPEMGEIFAHSSNLLRHQR as the variant, how does the protein stability index read?
Its protein stability index is 3.83.

With EKPYKCPEQGEIFAHSSNLLRHQR as the variant, how does the protein stability index read?
Its protein stability index is 4.07.

With EKPYKCPEYGEIFAHSSNLLRHQR as the variant, how does the protein stability index read?
Its protein stability index is 3.45.

With EKPYKCPEHGEIFAHSSNLLRHQR as the variant, how does the protein stability index read?
The protein stability index was 2.56.

Which protein stability index does the source give for EKPYKCPEAGEIFAHSSNLLRHQR here?
Its protein stability index is 3.62.

For EKPYKCPEDGEIFAHSSNLLRHQR, which protein stability index is on record?
The protein stability index was 3.74.

Which protein stability index does the source give for EKPYKCPEFGEIFAHSSNLLRHQR here?
Its protein stability index is 2.71.

With EKPYKCPECGEIFAHSSNLLRHQS as the variant, how does the protein stability index read?
Its protein stability index is 4.47.

With EKPYKCPECGEIFAHSSNLLRHQQ as the variant, how does the protein stability index read?
Its protein stability index is 3.74.

With EKPYKCPECGEIFAHSSNLLRHQE as the variant, how does the protein stability index read?
Its protein stability index is 4.38.

With EKPYKCPECGEIFAHSSNLLRHQC as the variant, how does the protein stability index read?
Its protein stability index is 5.28.

With EKPYKCPECGEIFAHSSNLLRHQH as the variant, how does the protein stability index read?
The protein stability index was 4.43.

For EKPYKCPECGEIFAHSSNLLRHQG, which protein stability index is on record?
The protein stability index was 3.7.

For EKPYKCPECGEIFAHSSNLLRHQK, which protein stability index is on record?
The protein stability index was 3.25.

Which protein stability index does the source give for EKPYKCPECGEIFAHSSNLLRHQA here?
The protein stability index was 4.17.

Which protein stability index does the source give for EKPYKCPECGEIFAHSSNLLRHQM here?
The protein stability index was 3.6.

With EKPYKCPNCGEIFAHSSNLLRHQR as the variant, how does the protein stability index read?
The protein stability index was 2.1.

With EKPYKCPTCGEIFAHSSNLLRHQR as the variant, how does the protein stability index read?
Its protein stability index is 2.74.

With EKPYKCPCCGEIFAHSSNLLRHQR as the variant, how does the protein stability index read?
The protein stability index was 3.16.

Which protein stability index does the source give for EKPYKCPKCGEIFAHSSNLLRHQR here?
The protein stability index was 3.12.

With EKPYKCPWCGEIFAHSSNLLRHQR as the variant, how does the protein stability index read?
The protein stability index was 1.88.

Which protein stability index does the source give for EKPYKCPQCGEIFAHSSNLLRHQR here?
The protein stability index was 1.71.

Which protein stability index does the source give for EKPYKCPACGEIFAHSSNLLRHQR here?
The protein stability index was 2.51.

Which protein stability index does the source give for EKPYKCPECGNIFAHSSNLLRHQR here?
The protein stability index was 1.73.

Which protein stability index does the source give for EKPYKCPECGGIFAHSSNLLRHQR here?
Its protein stability index is 1.98.

For EKPYKCPECGWIFAHSSNLLRHQR, which protein stability index is on record?
Its protein stability index is 2.42.

For EKPYKCPECGMIFAHSSNLLRHQR, which protein stability index is on record?
Its protein stability index is 1.72.

With EKPYKCPECGCIFAHSSNLLRHQR as the variant, how does the protein stability index read?
The protein stability index was 2.25.

For EKPYKCPECGSIFAHSSNLLRHQR, which protein stability index is on record?
Its protein stability index is 1.13.

Which protein stability index does the source give for EKYYKCPECGEIFAHSSNLLRHQR here?
Its protein stability index is 3.04.

Which protein stability index does the source give for EKQYKCPECGEIFAHSSNLLRHQR here?
Its protein stability index is 1.78.

For EKIYKCPECGEIFAHSSNLLRHQR, which protein stability index is on record?
Its protein stability index is 1.82.

For EKAYKCPECGEIFAHSSNLLRHQR, which protein stability index is on record?
Its protein stability index is 2.29.

Which protein stability index does the source give for EKWYKCPECGEIFAHSSNLLRHQR here?
Its protein stability index is 2.83.

For EKKYKCPECGEIFAHSSNLLRHQR, which protein stability index is on record?
Its protein stability index is 1.52.

For EKRYKCPECGEIFAHSSNLLRHQR, which protein stability index is on record?
Its protein stability index is 1.89.
